# US20150037339A1
# B1: H4H10429P (antibody, human IgG4, V domains shown)
# VH: QVQLVESGGGVVQPGRSLRLSCVASGFTVSSYGIHWVRQAPGKGLEWVSVIWYDGRNKDYADSVKGRFTISRDNSKNTVYLEMKGLRAEDTALYYCARDKTGDFDSWGQGTLVTVSS
# VL: DIQMTQSPSSLSASVGDRVTITCRASQNINSFLSWYQQKPGKAPKFLIYDASSIQSGAPSRFSGSGSGTDFTLTISSLQPEDFATYYCQQSYSSPFTFGQGTKLEIK
# B2: Activin A, P08476 311-426 (ligand)
# chain: GLECDGKVNICCKKQFFVSFKDIGWNDWIIAPSGYHANYCEGECPSHIAGTSGSSLSFHSTVINHYRMRGHSPFANLKSCCVPTKLRPMSMLYYDDGQNIIKKDIQNMIVEECGCS
# B3: Activin AB, P08476 311-426; P09529 293-407 (ligand)
# chain 1: B2 chain
# chain 2: GLECDGRTNLCCRQQFFIDFRLIGWNDWIIAPTSYYGNYCEGSCPAYLAGVPGSASSFHTAVVNQYRMRGLNPGTVNSCCIPTKLSTMSMLYFDDEYNIVKRDVPNMIVEECGCA
# B4: Activin AC, P55103 237-352 (ligand, human)
# chain 1: B2 chain
# chain 2: GIDCQGGSRMCCRQEFFVDFREIGWHDWIIQPEGYAMNFCIGQCPLHIAGMPGIAASFHTAVLNLLKANTAAGTTGGGSCCVPTARRPLSLLYYDRDSNIVKTDIPDMVVEACGCS
# B5: Activin B, P09529 293-407 (ligand)
# chain: B3 chain 2
# B6: BMP2 (ligand, human, UniProt P12643 283-396, looked up)
# chain: QAKHKQRKRLKSSCKRHPLYVDFSDVGWNDWIVAPPGYHAFYCHGECPFPLADHLNSTNHAIVQTLVNSVNSKIPKACCVPTELSAISMLYLDENEKVVLKNYQDMVVEGCGCR
# B7: BMP4 (ligand, human, UniProt P12644 293-408, looked up)
# chain: SPKHHSQRARKKNKNCRRHSLYVDFSDVGWNDWIVAPPGYQAFYCHGDCPFPLADHLNSTNHAIVQTLVNSVNSSIPKACCVPTELSAISMLYLDEYDKVVLKNYQEMVVEGCGCR
# B8: BMP9 (ligand, human, UniProt Q9UK05 320-429, looked up)
# chain: SAGAGSHCQKTSLRVNFEDIGWDSWIIAPKEYEAYECKGGCFFPLADDVTPTKHAIVQTLVHLKFPTKVGKACCVPTKLSPISVLYKDDMGVPTLKYHYEGMSVAECGCR
# B9: BMP10 (ligand, human, UniProt O95393 317-424, looked up)
# chain: NAKGNYCKRTPLYIDFKEIGWDSWIIAPPGYEAYECRGVCNYPLAEHLTPTKHAIIQALVHLKNSQKASKACCVPTKLEPISILYLDKGVVTYKFKYEGMAVSECGCR
# Target: hBMP7 (human) (UniProt P18075)
# Sequence (P18075 293-431 limits assumed): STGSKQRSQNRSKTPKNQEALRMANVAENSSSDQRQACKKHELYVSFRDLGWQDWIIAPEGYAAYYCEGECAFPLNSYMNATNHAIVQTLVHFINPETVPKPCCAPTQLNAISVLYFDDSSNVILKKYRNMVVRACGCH
# Assay: SPR (Biacore 4000), captured on anti-human Fc, 200 nM ligand injected, 37 C
row,Binder,binding response (resonance units) for 200 nM ligand [RU]
1,B1,9.2

# Target: activin Type II receptors
# Assay: cell-based or functional assay
row,Binder,"EC50, activation of A204/CAGAx12-Luc cells (Smad 2/3-luciferase reporter) [pM]"
1,B2,99
2,B3,19
3,B4,4400
4,B5,47

# Target: BMP receptor types I and II (on W-20-17/BRE-luc cells)
# Assay: cell-based or functional assay
row,Binder,EC50 [M]; activation of W-20-17/BRE-luc luciferase reporter cells [M]
1,B6,3.4e-11
2,B7,6.3e-11
3,B8,2.6e-10
4,B9,2.5e-09
